B1: Homeobox protein SIX1 (Homo sapiens), Q15475 (parent)
chain: MSMLPSFGFTQEQVACVCEVLQQGGNLERLGRFLWSLPACDHLHKNESVLKAKAVVAFHRGNFRELYKILESHQFSPHNHPKLQQLWLKAHYVEAEKLRGRPLGAVGKYRVRRKFPLPRTIWDGEETSYCFKEKSRGVLREWYAHNPYPSPREKRELAEATGLTTTQVSNWFKNRRQRDRAAEAKERENTENNNSSSNKQNQLSPLEGGKPLMSSSEEEFSPPQSPDQNSVLLLQGNMGHARSSNYSLPGLTASQPSHGLQTHQHQLQDSLLGPLTSSLVDLGS
partner: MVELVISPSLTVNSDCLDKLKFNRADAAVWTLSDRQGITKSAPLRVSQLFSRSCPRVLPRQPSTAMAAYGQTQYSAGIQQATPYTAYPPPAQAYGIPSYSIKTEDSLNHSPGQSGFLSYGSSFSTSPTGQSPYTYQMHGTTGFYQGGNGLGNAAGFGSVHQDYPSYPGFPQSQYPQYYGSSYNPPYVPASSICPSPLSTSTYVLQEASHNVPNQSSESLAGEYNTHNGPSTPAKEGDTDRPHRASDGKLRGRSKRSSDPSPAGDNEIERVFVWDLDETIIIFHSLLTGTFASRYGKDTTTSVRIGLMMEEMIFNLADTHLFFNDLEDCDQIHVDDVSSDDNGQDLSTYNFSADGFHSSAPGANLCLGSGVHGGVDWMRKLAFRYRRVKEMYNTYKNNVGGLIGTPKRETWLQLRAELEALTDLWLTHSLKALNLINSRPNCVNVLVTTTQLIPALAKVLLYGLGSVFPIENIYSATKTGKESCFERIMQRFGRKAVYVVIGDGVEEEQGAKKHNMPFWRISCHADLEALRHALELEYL
B2: Protein phosphatase EYA2 (Homo sapiens), O00167-1 (parent)
chain: B1 partner
partner: B1 chain

Variants of: B1
Conditions: with EYA2, O00167-1

effect of a mutation on the interaction | Variant
disrupting interaction strength | MSMLPSFGFTQEQVARVCEVLQQGGNLERLGRFLWSLPACDHLHKNESVLKAKAVVAFHRGNFRELYKILESHQFSPHNHPKLQQLWLKAHYVEAEKLRGRPLGAVGKYRVRRKFPLPRTIWDGEETSYCFKEKSRGVLREWYAHNPYPSPREKRELAEATGLTTTQVSNWFKNRRQRDRAAEAKERENTENNNSSSNKQNQLSPLEGGKPLMSSSEEEFSPPQSPDQNSVLLLQGNMGHARSSNYSLPGLTASQPSHGLQTHQHQLQDSLLGPLTSSLVDLGS [C16R]

Variants of: B2
Conditions: with six1_human SIX1, Q15475

effect of a mutation on the interaction | Variant
decreasing interaction strength | MVELVISPSLTVNSDCLDKLKFNRADAAVWTLSDRQGITKSAPLRVSQLFSRSCPRVLPRQPSTAMAAYGQTQYSAGIQQATPYTAYPPPAQAYGIPSYSIKTEDSLNHSPGQSGFLSYGSSFSTSPTGQSPYTYQMHGTTGFYQGGNGLGNAAGFGSVHQDYPSYPGFPQSQYPQYYGSSYNPPYVPASSICPSPLSTSTYVLQEASHNVPNQSSESLAGEYNTHNGPSTPAKEGDTDRPHRASDGKLRGRSKRSSDPSPAGDNEIERVFVWDLDETIIIFHSLLTGTFASRYGKDTTTSVRIGLMMEEMIFNLADTHLFFNDLEDCDQIHVDDVSSDDNGQDLSTYNFSADGFHSSAPGANLCLGSGVHGGVDWMRKLAFRYRRVKEMYNTYKNNVGGLIGTPKRETWLQLRAELEALTDLWLTHSLKALNLINSRPNCVNVLVTTTQLIPALAKVLLYGLGSVFPIENIYSATKTGKESCFERIMQRFGRKAVYVVIGDGVEEEQGAKKHNMRFWRISCHADLEALRHALELEYL [P516R]
disrupting interaction strength | MVELVISPSLTVNSDCLDKLKFNRADAAVWTLSDRQGITKSAPLRVSQLFSRSCPRVLPRQPSTAMAAYGQTQYSAGIQQATPYTAYPPPAQAYGIPSYSIKTEDSLNHSPGQSGFLSYGSSFSTSPTGQSPYTYQMHGTTGFYQGGNGLGNAAGFGSVHQDYPSYPGFPQSQYPQYYGSSYNPPYVPASSICPSPLSTSTYVLQEASHNVPNQSSESLAGEYNTHNGPSTPAKEGDTDRPHRASDGKLRGRSKRSSDPSPAGDNEIERVFVWDLDETIIIFHSLLTGTFASRYGKDTTTSVRIGLMMEEMIFNLADTHLFFNDLEDCDQIHVDDVSSDDNGQDLSTYNFSADGFHSSAPGANLCLGSGVHGGVDWMRKLAFRYRRVKEMYNTYKNNVGGLIGTPKRETWLQLRAELEALTDLWLTHSLKALNLINSRPNCVNVLVTTTQLIPALAKVLLYGLGSVFPIENIYSATKTGKESCFERIMQRFGRKAVYVVIGDGVEEEQGAKKHNMPFWRISCHADLEALRHRLELEYL [A532R]

From IntAct's records for PubMed 23435380
